Results reported in article PMC9482650, “Quantitative fragmentomics allow affinity mapping of interactomes” (Nature Communications, 2022).

Legend:
Experiment in all cases: holdup assay
Set-up in all cases: key: below the threshold = too weak to quantify, mostly under pKd 3.1 to 4
[1] = molecular target: GRIP2_7, Q9C0E4
[2] = molecular target: DLG2_3, Q15700
[3] = molecular target: GRIP2_4, Q9C0E4
[4] = molecular target: GRIP2_6, Q9C0E4
[5] = molecular target: Inadl_10, Q8NI35
[6] = molecular target: T1, FRMPD1, Q5SYB0
T1 sequence (Q5SYB0 52-145, limits assumed, looked up): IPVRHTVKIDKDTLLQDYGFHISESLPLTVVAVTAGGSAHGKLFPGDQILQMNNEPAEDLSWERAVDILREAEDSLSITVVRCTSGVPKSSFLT

[7] = molecular target: T2, MPP2, Q14168
T2 sequence (Q14168 180-250, limits assumed, looked up): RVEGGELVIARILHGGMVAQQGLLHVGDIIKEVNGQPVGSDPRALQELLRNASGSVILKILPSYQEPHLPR

[8] = molecular target: HTRA2, O43464
Chain of HTRA2, O43464 (O43464 355-458): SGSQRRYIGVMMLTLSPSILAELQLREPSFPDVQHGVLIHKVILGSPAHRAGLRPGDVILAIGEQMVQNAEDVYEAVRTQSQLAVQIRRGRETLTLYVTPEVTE

[9] = molecular target: GORASP1, Q9BQQ3
Chain of GORASP1, Q9BQQ3 (Q9BQQ3 1-208): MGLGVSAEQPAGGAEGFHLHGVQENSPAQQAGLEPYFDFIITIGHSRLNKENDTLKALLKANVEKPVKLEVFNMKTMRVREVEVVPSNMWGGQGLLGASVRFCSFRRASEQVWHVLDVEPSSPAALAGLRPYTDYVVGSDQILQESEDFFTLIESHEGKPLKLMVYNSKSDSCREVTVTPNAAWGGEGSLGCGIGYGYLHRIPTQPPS

[10] = molecular target: T3, DVL3, Q92997
T3 sequence (Q92997 244-331, limits assumed, looked up): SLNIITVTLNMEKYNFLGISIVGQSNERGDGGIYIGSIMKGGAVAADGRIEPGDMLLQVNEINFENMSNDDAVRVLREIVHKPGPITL

[11] = molecular target: DLG1_1, Q12959
[12] = molecular target: T4, DFNB31_2, Q9P202
T4 sequence (Q9P202 274-371, limits assumed, looked up): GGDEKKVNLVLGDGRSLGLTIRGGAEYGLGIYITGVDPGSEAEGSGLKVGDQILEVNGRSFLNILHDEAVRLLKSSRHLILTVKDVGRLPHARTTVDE

[13] = molecular target: T5, LNX2_2, Q8N448
T5 sequence (Q8N448 334-432, limits assumed, looked up): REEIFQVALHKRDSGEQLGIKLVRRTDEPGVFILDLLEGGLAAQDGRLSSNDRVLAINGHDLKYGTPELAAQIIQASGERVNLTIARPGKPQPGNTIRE

[14] = molecular target: MAGI1_2, Q96QZ7
Chain of MAGI1_2, Q96QZ7 (Q96QZ7 456-580): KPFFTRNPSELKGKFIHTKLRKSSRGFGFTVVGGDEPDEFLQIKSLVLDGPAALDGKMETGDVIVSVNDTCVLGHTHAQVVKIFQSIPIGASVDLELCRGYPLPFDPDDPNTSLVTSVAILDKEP

[15] = molecular target: T6, MPDZ_10, O75970
T6 sequence (O75970 1624-1722, limits assumed, looked up): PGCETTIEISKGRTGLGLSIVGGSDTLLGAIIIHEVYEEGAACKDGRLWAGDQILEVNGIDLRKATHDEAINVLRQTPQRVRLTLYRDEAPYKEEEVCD

[16] = molecular target: T7, APBA2_2, Q99767
T7 sequence (Q99767 654-744, limits assumed, looked up): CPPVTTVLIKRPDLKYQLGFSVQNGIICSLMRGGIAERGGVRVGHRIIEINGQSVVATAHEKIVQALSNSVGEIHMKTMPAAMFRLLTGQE

[17] = molecular target: SCRIB_3, Q14160
Chain of SCRIB_3, Q14160 (Q14160 999-1103): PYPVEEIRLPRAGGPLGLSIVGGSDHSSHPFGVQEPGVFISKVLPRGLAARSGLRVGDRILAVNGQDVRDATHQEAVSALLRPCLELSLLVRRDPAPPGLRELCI

[18] = molecular target: GRIP2_5, Q9C0E4
Chain of GRIP2_5, Q9C0E4 (Q9C0E4 544-642): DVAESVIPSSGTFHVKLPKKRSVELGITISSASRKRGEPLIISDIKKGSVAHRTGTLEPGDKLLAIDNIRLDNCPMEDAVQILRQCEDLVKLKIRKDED

[19] = molecular target: T8, LIN7C, Q9NUP9
T8 sequence (Q9NUP9 88-185, limits assumed, looked up): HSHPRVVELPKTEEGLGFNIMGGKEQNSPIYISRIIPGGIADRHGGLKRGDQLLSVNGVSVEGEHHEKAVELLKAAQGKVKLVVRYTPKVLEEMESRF

[20] = molecular target: T9, SIPA1L2, Q9P2F8
T9 sequence (Q9P2F8 945-1036, limits assumed, looked up): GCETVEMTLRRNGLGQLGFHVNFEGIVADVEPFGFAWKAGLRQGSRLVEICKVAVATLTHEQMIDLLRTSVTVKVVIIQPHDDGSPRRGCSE

[21] = molecular target: NHERF4_2, Q86UT5
Chain of NHERF4_2, Q86UT5 (Q86UT5 220-308): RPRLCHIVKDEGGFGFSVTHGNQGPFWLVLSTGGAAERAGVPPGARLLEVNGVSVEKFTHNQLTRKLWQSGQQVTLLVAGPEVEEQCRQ

[22] = molecular target: LDB3, O75112
Chain of LDB3, O75112 (O75112 1-94): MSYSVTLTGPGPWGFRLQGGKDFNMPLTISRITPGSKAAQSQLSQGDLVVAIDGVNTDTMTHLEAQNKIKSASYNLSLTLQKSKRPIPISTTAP

[23] = molecular target: NOS1, P29475
Chain of NOS1, P29475 (P29475 9-101): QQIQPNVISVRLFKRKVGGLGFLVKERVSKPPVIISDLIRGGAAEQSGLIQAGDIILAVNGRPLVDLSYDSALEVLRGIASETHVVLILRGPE

[24] = molecular target: T10, DLG3_1, Q92796
T10 sequence (Q92796 125-227, limits assumed, looked up): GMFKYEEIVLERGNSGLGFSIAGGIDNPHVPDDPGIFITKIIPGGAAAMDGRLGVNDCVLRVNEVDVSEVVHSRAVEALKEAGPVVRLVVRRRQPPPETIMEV

[25] = molecular target: PARD3_3, Q8TEW0
Chain of PARD3_3, Q8TEW0 (Q8TEW0 582-685): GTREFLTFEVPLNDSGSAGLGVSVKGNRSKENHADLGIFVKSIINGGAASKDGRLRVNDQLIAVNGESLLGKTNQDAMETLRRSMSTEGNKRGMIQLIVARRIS

[26] = molecular target: T11, TX1BP3, O14907
T11 sequence (O14907 10-122, limits assumed, looked up): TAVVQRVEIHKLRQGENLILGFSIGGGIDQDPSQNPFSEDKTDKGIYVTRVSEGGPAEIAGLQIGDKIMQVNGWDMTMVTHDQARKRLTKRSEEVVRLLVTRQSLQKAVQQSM

[27] = plain residues with an end cap or a label only (N-terminal biotin on a linker: ttds)
[28] = plain residues with an end cap or a label only (N-terminal biotin on a linker: ado-ado)
[29] = plain residues with an end cap or a label only (N-terminal biotin on a linker: gsgsgs; C-terminal amide)
[30] = plain residues with an end cap or a label only (N-terminal biotin on a linker: none)

Chain of GRIP2_7, Q9C0E4 (Q9C0E4 934-1023): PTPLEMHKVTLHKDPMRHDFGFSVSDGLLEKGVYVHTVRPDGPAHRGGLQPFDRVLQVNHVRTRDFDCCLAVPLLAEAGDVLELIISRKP
Chain of GRIP2_6, Q9C0E4 (Q9C0E4 648-740): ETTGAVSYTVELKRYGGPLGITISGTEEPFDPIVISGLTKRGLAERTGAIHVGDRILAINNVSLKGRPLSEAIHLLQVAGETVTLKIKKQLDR
Chain of Inadl_10, Q8NI35 (Q8NI35 1673-1763): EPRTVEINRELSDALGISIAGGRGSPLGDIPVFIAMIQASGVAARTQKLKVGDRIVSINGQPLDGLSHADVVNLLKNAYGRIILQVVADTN
Chain of GRIP2_4, Q9C0E4 (Q9C0E4 446-548): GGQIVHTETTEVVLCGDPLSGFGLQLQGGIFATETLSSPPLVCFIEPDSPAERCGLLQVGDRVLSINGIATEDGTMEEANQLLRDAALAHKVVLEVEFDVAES

HRTCYLVTQL [ASIC3, Q9UHC3]
pKd [1, 27]: 3.48
pKd [2, 27]: 4.17
pKd [3, 27]: below the threshold
pKd [4, 27]: 3.22
pKd [5, 27]: 3.84
pKd [6, 27]: below the threshold
pKd [7, 27]: below the threshold
pKd [8, 27]: 3.91
pKd [9, 27]: 3.93
pKd [10, 27]: 3.3
pKd [11, 27]: 3.97
pKd [12, 27]: below the threshold
pKd [13, 27]: below the threshold
pKd [14, 27]: 4.83
pKd [15, 27]: 3.91
pKd [16, 27]: below the threshold
pKd [17, 27]: 4.85
pKd [18, 27]: 4.31
pKd [19, 27]: 3.41
pKd [20, 27]: below the threshold
pKd [21, 27]: 3.21
pKd [22, 27]: below the threshold
pKd [23, 27]: 3.75
pKd [24, 27]: 3.34
pKd [25, 27]: 3.76
pKd [26, 27]: 5.08

LHLHGTGIQV [EPHA7, Q15375]
pKd [1, 28]: 3.82
pKd [2, 28]: below the threshold
pKd [3, 28]: below the threshold
pKd [4, 28]: 3.81
pKd [5, 28]: below the threshold
pKd [6, 28]: below the threshold
pKd [7, 28]: below the threshold
pKd [8, 28]: below the threshold
pKd [9, 28]: 4.23
pKd [10, 28]: below the threshold
pKd [11, 28]: below the threshold
pKd [12, 28]: below the threshold
pKd [13, 28]: 5.03
pKd [14, 28]: below the threshold
pKd [15, 28]: below the threshold
pKd [16, 28]: below the threshold
pKd [17, 28]: 3.53
pKd [18, 28]: 3.55
pKd [19, 28]: 4.08
pKd [20, 28]: below the threshold
pKd [21, 28]: 3.54
pKd [22, 28]: below the threshold
pKd [23, 28]: 4.24
pKd [24, 28]: below the threshold
pKd [25, 28]: 3.64
pKd [26, 28]: 4.12

ELIQDTSTSFSTTREW [ARAP3_int, Q8WWN8]
pKd [1, 29]: below the threshold
pKd [2, 29]: 3.69
pKd [3, 29]: below the threshold
pKd [4, 29]: below the threshold
pKd [5, 29]: below the threshold
pKd [6, 29]: below the threshold
pKd [7, 29]: below the threshold
pKd [8, 29]: below the threshold
pKd [9, 29]: below the threshold
pKd [10, 29]: below the threshold
pKd [11, 29]: below the threshold
pKd [12, 29]: below the threshold
pKd [13, 29]: below the threshold
pKd [14, 29]: below the threshold
pKd [15, 29]: below the threshold
pKd [16, 29]: below the threshold
pKd [17, 29]: below the threshold
pKd [18, 29]: below the threshold
pKd [19, 29]: 4.11
pKd [20, 29]: below the threshold
pKd [21, 29]: below the threshold
pKd [22, 29]: below the threshold
pKd [23, 29]: below the threshold
pKd [24, 29]: below the threshold
pKd [25, 29]: below the threshold
pKd [26, 29]: 3.92

DSKPPLPPDEWV [MERS-E, K9N5R3]
pKd [1, 30]: 3.86
pKd [2, 30]: below the threshold
pKd [3, 30]: below the threshold
pKd [4, 30]: below the threshold
pKd [5, 30]: below the threshold
pKd [6, 30]: below the threshold
pKd [7, 30]: below the threshold
pKd [8, 30]: 4.2
pKd [9, 30]: 4.29
pKd [10, 30]: 3.78
pKd [11, 30]: below the threshold
pKd [12, 30]: below the threshold
pKd [13, 30]: 4.44
pKd [14, 30]: below the threshold
pKd [15, 30]: below the threshold
pKd [16, 30]: below the threshold
pKd [17, 30]: 3.9
pKd [18, 30]: below the threshold
pKd [19, 30]: below the threshold
pKd [20, 30]: below the threshold
pKd [21, 30]: below the threshold
pKd [22, 30]: below the threshold
pKd [23, 30]: 3.99
pKd [24, 30]: below the threshold
pKd [25, 30]: 4.07
pKd [26, 30]: 3.7

GGPKEEESPV [SLC16A1, P53985]
pKd [1, 27]: below the threshold
pKd [2, 27]: below the threshold
pKd [3, 27]: below the threshold
pKd [4, 27]: below the threshold
pKd [5, 27]: below the threshold
pKd [6, 27]: below the threshold
pKd [7, 27]: below the threshold
pKd [8, 27]: below the threshold
pKd [9, 27]: below the threshold
pKd [10, 27]: below the threshold
pKd [11, 27]: below the threshold
pKd [12, 27]: below the threshold
pKd [13, 27]: below the threshold
pKd [14, 27]: below the threshold
pKd [15, 27]: below the threshold
pKd [16, 27]: below the threshold
pKd [17, 27]: below the threshold
pKd [18, 27]: below the threshold
pKd [19, 27]: below the threshold
pKd [20, 27]: below the threshold
pKd [21, 27]: below the threshold
pKd [22, 27]: below the threshold
pKd [23, 27]: 3.64
pKd [24, 27]: below the threshold
pKd [25, 27]: below the threshold
pKd [26, 27]: below the threshold
